Results published in paper doi:10.1101/2020.02.02.931204.

Molecular target: HA-SFPQ (human) (UniProt P23246)
Assay: co-IP

Sequence of HA-SFPQ (human) (P23246 whole entry): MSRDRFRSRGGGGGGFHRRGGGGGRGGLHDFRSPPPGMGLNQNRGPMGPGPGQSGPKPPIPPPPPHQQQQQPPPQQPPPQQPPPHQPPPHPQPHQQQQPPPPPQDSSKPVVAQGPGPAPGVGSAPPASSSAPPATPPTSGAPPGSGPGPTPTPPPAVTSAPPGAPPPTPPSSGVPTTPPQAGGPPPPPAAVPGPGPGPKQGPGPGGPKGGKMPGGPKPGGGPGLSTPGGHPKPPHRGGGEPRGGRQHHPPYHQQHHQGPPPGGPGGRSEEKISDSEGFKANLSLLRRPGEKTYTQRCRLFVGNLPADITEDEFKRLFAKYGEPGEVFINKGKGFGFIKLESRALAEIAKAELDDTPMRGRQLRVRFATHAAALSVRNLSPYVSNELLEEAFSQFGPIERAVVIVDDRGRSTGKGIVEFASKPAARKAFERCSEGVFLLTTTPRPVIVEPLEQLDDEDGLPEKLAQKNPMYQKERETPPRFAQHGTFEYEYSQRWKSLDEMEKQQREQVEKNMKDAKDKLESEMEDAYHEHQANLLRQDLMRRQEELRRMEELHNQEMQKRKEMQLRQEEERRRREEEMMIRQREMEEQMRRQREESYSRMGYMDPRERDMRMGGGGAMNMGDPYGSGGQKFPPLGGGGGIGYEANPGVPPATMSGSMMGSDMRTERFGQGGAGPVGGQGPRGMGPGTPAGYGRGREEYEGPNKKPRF
Sequence of Myc-KLC1 ΔTail (domain or fragment) (O88447 whole entry, stated change not applied, the tested form may be a part): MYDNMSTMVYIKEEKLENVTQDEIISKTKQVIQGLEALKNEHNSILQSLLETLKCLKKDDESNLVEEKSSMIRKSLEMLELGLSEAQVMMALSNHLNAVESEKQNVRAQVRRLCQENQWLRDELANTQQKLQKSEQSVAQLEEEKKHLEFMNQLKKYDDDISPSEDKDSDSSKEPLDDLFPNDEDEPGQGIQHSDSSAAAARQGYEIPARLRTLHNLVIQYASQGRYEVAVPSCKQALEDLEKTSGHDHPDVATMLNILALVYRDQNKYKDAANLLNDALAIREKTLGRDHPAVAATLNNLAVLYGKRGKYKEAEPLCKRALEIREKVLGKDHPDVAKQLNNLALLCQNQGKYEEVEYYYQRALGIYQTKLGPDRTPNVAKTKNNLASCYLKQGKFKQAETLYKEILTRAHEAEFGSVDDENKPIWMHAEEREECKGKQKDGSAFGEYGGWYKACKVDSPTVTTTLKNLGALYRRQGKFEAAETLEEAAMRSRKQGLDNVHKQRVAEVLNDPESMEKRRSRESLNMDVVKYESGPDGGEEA

reduction of binding against WT KLC1: 50%
Substance: Myc-KLC1 ΔTail (domain or fragment)
